According to PMC9257043:

Target: recombinant SmFGFRA extracellular ligand binding domain (rSmFGFRA-L) (Schistosoma mansoni)
Assay: BLI; Octet RED 96; biotinylated rSmFGFRA-L immobilised on Streptavidin Biosensors, human aFGF/bFGF in dilution series as analyte; kinetic buffer (PBS with 15 mM NaCl, 0.1 mg/ml BSA, 0.002% Tween-20); association 1000 s, dissociation 1000 s; 30°C, 1000 rpm; double reference subtraction

| Substance | Kd [nM] |
| --- | --- |
| human basic FGF (bFGF) (from UniProt P09038 143-288) (ligand) | 0.36 |
| human acidic FGF (aFGF) (from UniProt P05230 16-155) (ligand) | 5.81 |
